What was measured:
Sam68 C-terminal region [1] = target: T1, Sam68 C-terminal region (UniProt Q07666 267-368); assay: NMR titration; one of two estimates (backbone or Arg side chains; panel assignment not clear, error suggests eight backbone resonances); text range 30-70 uM; NMR: HSQC at 4 C (NMR buffer not given in material; purification in 50 mM sodium phosphate, 150 mM NaCl, pH 7.6 N-term / pH 7.0 C-term). Pull-down: 20 mM HEPES; details: protein: recombinant; tags: GST removed by PreScission
T1 sequence (Q07666 267-368): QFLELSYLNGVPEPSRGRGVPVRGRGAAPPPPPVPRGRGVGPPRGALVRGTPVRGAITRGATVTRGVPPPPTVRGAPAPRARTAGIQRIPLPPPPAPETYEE

Sam68 N-terminal region [2] = target: T2, Sam68 N-terminal region (UniProt Q07666 1-96); assay: NMR titration; second estimate (probably Arg side chains); NMR: HSQC at 4 C (NMR buffer not given in material; purification in 50 mM sodium phosphate, 150 mM NaCl, pH 7.6 N-term / pH 7.0 C-term). Pull-down: 20 mM HEPES; details: protein: recombinant; tags: His-tag removed by TEV
T2 sequence (Q07666 1-96): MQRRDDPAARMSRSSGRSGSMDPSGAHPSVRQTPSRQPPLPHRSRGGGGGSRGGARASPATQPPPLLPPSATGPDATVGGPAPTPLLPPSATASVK

Sam68 C-terminal region [3] = target: T1, Sam68 C-terminal region; assay: as above; details: protein: recombinant; tags: GST removed by PreScission
Sam68 N-terminal region [4] = target: T2, Sam68 N-terminal region; assay: NMR titration; one of two estimates (backbone or Arg side chains; panel assignment not clear, error suggests eight backbone resonances); text range 1-10 uM; NMR: HSQC at 4 C (NMR buffer not given in material; purification in 50 mM sodium phosphate, 150 mM NaCl, pH 7.6 N-term / pH 7.0 C-term). Pull-down: 20 mM HEPES; details: protein: recombinant; tags: His-tag removed by TEV

CUGGGUGACACACUAGCUAUAGCAUUAAAAGACCGAGCAAGU (ssRNA) [G8.5 RNA] showed a Kd (Sam68 C-terminal region [1]) of 32 ± 5 µM, a Kd (Sam68 N-terminal region [2]) of 12 µM and a Kd (Sam68 C-terminal region [3]) of 68 µM. The Kd (Sam68 N-terminal region [4]) was 3.5 ± 1.2 µM.
